# Data from PMC2928128 (Human Molecular Genetics, 2010).
# T1: harmonin-a Nter domain (residues 1-79) (UniProt Q9ES64 1-79)
# T1 sequence (looked up): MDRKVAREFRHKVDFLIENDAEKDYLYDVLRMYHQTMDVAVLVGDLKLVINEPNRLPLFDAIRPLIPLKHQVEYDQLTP
# T2: harmonin-a Nter-PDZ1 fragment (residues 1-203) (UniProt Q9ES64 1-203)
# T2 sequence (looked up): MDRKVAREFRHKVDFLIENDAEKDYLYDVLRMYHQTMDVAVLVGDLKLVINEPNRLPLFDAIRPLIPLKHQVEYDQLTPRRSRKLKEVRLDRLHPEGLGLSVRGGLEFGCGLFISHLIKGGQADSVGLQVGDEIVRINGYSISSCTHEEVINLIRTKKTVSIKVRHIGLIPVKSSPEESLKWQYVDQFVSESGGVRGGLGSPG
# T3: harmonin-a Nter-PDZ1-PDZ2 fragment (residues 1-299) (UniProt Q9ES64 1-299)
# T3 sequence (looked up): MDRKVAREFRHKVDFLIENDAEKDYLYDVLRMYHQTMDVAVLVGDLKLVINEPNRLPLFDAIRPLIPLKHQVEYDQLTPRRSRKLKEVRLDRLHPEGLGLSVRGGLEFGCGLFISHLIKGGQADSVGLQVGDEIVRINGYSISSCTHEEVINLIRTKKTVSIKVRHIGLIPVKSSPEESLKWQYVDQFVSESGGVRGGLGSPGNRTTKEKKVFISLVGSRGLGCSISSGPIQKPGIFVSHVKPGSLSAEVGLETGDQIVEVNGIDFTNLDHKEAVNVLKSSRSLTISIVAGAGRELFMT
# B1: GST-CDH23Δexon68 (cytoplasmic region of cadherin-23 lacking the exon68-encoded sequence, residues 847-1079) (domain or fragment)
# chain: NWYYRTVHKRKLKAIVAGSAGNRGFIDIMDMPNTNKYSFDGANPVWLDPFCRNLELAAQAEHEDDLPENLSEIADLWNSPTRTHGTFGREPAAVKPDDDRYLRAAIQEYDNIAKLGQIIREGPIKLIQTELDEEPGDHSPGQGSLRFRHKPPVELKGPDGIHVVHGSTGTLLATDLNSLPEEDQKGLGRSLETLTAAEATAFERNARTESAKSTPLHKLRDVIMETPLEITEL
# B2: GST-CDH23 + exon68ΔITEL (residues 847-1110) (domain or fragment)
# chain: NWYYRTVHKRKLKAIVAGSAGNRGFIDIMDMPNTNKYSFDGANPVWLDPFCRNLELAAQAEHEDDLPENLSEIADLWNSPTRTHGTFGREPAAVKPDDDRYLRAAIQEYDNIAKLGQIIREGPIKGSLLKVVLEDYLRLKKLFAQRMVQKASSCHSSISELIQTELDEEPGDHSPGQGSLRFRHKPPVELKGPDGIHVVHGSTGTLLATDLNSLPEEDQKGLGRSLETLTAAEATAFERNARTESAKSTPLHKLRDVIMETPLE
# B3: GST-CDH23 + exon68 (cytoplasmic region of cadherin-23 including the exon68-encoded sequence, residues 847-1114) (domain or fragment)
# chain: NWYYRTVHKRKLKAIVAGSAGNRGFIDIMDMPNTNKYSFDGANPVWLDPFCRNLELAAQAEHEDDLPENLSEIADLWNSPTRTHGTFGREPAAVKPDDDRYLRAAIQEYDNIAKLGQIIREGPIKGSLLKVVLEDYLRLKKLFAQRMVQKASSCHSSISELIQTELDEEPGDHSPGQGSLRFRHKPPVELKGPDGIHVVHGSTGTLLATDLNSLPEEDQKGLGRSLETLTAAEATAFERNARTESAKSTPLHKLRDVIMETPLEITEL
# Assays:
# Assay in all cases: SPR
# [1] = biological target: GST-CDH23Δexon68ΔITEL (residues 847-1075)
# [2] = biological target: B1
# [3] = biological target: B3
# [4] = biological target: B2
# [5] = biological target: T1, harmonin-a Nter domain (residues 1-79)
# [6] = biological target: T2, harmonin-a Nter-PDZ1 fragment (residues …)
# [7] = biological target: T3, harmonin-a Nter-PDZ1-PDZ2 fragment …
Binder,Kd [1] [nM],Kd [2] [nM],Kd [3] [nM],Kd [4] [nM],Kd [5] [nM],Kd [6] [nM],Kd [7] [nM]
full-length harmonin-a (natural protein) MDRKVAREFRHKVDFLIENDAEKDYLYDVLRMYHQTMDVAVLVGDLKLVINEPNRLPLFDAIRPLIPLKHQVEYDQLTPRRSRKLKEVRLDRLHPEGLGLSVRGGLEFGCGLFISHLIKGGQADSVGLQVGDEIVRINGYSISSCTHEEVINLIRTKKTVSIKVRHIGLIPVKSSPEESLKWQYVDQFVSESGGVRGGLGSPGNRTTKEKKVFISLVGSRGLGCSISSGPIQKPGIFVSHVKPGSLSAEVGLETGDQIVEVNGIDFTNLDHKEAVNVLKSSRSLTISIVAGAGRELFMTDRERLEEARQRELQRQELLMQKRLAMESNKILQEQQEMERQRRKEIAQKAAEENERYRKEMEQISEEEEKFKKQWEEDWGSKEQLILPKTITAEVHPVPLRKPKYDQGVEPADHLDGSTEEQRQQDFRKYEEGFDPYSMFSPEQIAGKDVRLLRIKKEGSLDLALEGGVDSPVGKVVVSAVYEGGAAERHGGVVKGDEIMAINGKIVTDYTLAEAEAALQKAWNQGGDWIDLVVAVCPPKEYDDEL,48 ± 6,79 ± 11,97 ± 14,127 ± 12,,,
B1,,,,,> 5000,79 ± 10,42 ± 11
B2,,,,,> 5000,106 ± 5,66 ± 13
B3,,,,,> 5000,94 ± 8,64 ± 6
